According to patent US20220204580A1 (AstraZeneca / MedImmune, published 2022):
Each block holds one binder with its values, some of them ahead of it. Numbered stars: 1 amine (or outer) side, 2 acyl side, 3 side chain; on linkers, the order of the positions; unused ones are H or OH. Bridge positions count the residues as written; N and C are the ends. Square brackets hold non-standard residues; d marks the D form. Side chains are listed from the residue outwards. Ends that are not written are not given here. * marks the point of attachment. C18 diacid = O=C(O)CCCCCCCCCCCCCCCCC(=O)*; γGlu = O=C(O)[C@H](CCC(=O)[*:2])N[*:1]; αMeF = C[C@](N)(Cc1ccccc1)C(=O)O; Dab = NCC[C@H](N)C(=O)O; Aib = CC(C)(N)C(=O)O

Columns and labels:
[1] = molecular target: T1, human amylin receptor (calcitonin receptor co-expressed with receptor activity modifying protein, RAMP3) (human, UniProt P30988 25-474; O60896 24-148); assay: cell-based or functional assay
T1 sequence (looked up) 1: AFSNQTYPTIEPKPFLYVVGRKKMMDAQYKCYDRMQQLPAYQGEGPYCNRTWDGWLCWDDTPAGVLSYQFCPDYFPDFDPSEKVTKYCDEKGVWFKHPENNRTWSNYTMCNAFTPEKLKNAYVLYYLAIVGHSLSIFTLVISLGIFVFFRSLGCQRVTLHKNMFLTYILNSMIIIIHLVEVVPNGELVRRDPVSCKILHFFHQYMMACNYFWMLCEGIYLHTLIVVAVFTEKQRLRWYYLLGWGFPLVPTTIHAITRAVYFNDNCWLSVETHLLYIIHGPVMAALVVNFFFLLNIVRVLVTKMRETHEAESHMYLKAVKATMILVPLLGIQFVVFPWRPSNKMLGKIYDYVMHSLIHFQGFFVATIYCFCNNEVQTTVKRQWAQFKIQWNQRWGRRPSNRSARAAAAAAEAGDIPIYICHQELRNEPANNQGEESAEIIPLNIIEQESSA
T1 sequence (looked up) 2: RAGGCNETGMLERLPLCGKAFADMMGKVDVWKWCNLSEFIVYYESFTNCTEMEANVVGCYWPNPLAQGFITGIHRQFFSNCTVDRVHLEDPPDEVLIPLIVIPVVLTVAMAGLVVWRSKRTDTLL

[2] = molecular target: T2, human calcitonin receptor (human, UniProt P30988 25-474); assay: cell-based or functional assay
T2 sequence (looked up): T1 sequence (looked up) 1

- EC50 (cAMP production) [1]: 0.349 nM
- Ratio (EC50 hCTR / EC50 hAMYR3) [1]: 4
- EC50 (cAMP production) [2]: 1.28 nM
B1: Peptide 31 (SEQ ID NO: 31) (peptide)
peptide: K([γGlu-C18 diacid])KCNTATCATQRLANFLVHSS[Dab]NFG[Aib]ILPPTNVGSNTY-NH2
modifications: disulfide 3-8; N-terminus assumed
SMILES: CC[C@H](C)[C@H](NC(=O)C(C)(C)NC(=O)CNC(=O)[C@H](Cc1ccccc1)NC(=O)[C@H](CC(N)=O)NC(=O)[C@H](CCN)NC(=O)[C@H](CO)NC(=O)[C@H](CO)NC(=O)[C@H](Cc1c[nH]cn1)NC(=O)[C@@H](NC(=O)[C@H](CC(C)C)NC(=O)[C@H](Cc1ccccc1)NC(=O)[C@H](CC(N)=O)NC(=O)[C@H](C)NC(=O)[C@H](CC(C)C)NC(=O)[C@H](CCCNC(=N)N)NC(=O)[C@H](CCC(N)=O)NC(=O)[C@@H](NC(=O)[C@H](C)NC(=O)[C@@H]1CSSC[C@H](NC(=O)[C@H](CCCCN)NC(=O)[C@@H](N)CCCCNC(=O)CC[C@H](NC(=O)CCCCCCCCCCCCCCCCC(=O)O)C(=O)O)C(=O)N[C@@H](CC(N)=O)C(=O)N[C@@H]([C@@H](C)O)C(=O)N[C@@H](C)C(=O)N[C@@H]([C@@H](C)O)C(=O)N1)[C@@H](C)O)C(C)C)C(=O)N[C@@H](CC(C)C)C(=O)N1CCC[C@H]1C(=O)N1CCC[C@H]1C(=O)N[C@H](C(=O)N[C@@H](CC(N)=O)C(=O)N[C@H](C(=O)NCC(=O)N[C@@H](CO)C(=O)N[C@@H](CC(N)=O)C(=O)N[C@H](C(=O)N[C@@H](Cc1ccc(O)cc1)C(N)=O)[C@@H](C)O)C(C)C)[C@@H](C)O

- EC50 (cAMP production) [1]: 0.742 nM
- Ratio (EC50 hCTR / EC50 hAMYR3) [1]: 15
- EC50 (cAMP production) [2]: 11.1 nM
B2: Peptide 32 (SEQ ID NO: 32) (peptide)
peptide: K([γGlu-C18 diacid])KCNTATCATQRLA[Dab]FLVHSSNN[αMeF]GPILPPTEVGSNTY-NH2
modifications: disulfide 3-8; N-terminus assumed
SMILES: CC[C@H](C)[C@H](NC(=O)[C@@H]1CCCN1C(=O)CNC(=O)[C@](C)(Cc1ccccc1)NC(=O)[C@H](CC(N)=O)NC(=O)[C@H](CC(N)=O)NC(=O)[C@H](CO)NC(=O)[C@H](CO)NC(=O)[C@H](Cc1c[nH]cn1)NC(=O)[C@@H](NC(=O)[C@H](CC(C)C)NC(=O)[C@H](Cc1ccccc1)NC(=O)[C@H](CCN)NC(=O)[C@H](C)NC(=O)[C@H](CC(C)C)NC(=O)[C@H](CCCNC(=N)N)NC(=O)[C@H](CCC(N)=O)NC(=O)[C@@H](NC(=O)[C@H](C)NC(=O)[C@@H]1CSSC[C@H](NC(=O)[C@H](CCCCN)NC(=O)[C@@H](N)CCCCNC(=O)CC[C@H](NC(=O)CCCCCCCCCCCCCCCCC(=O)O)C(=O)O)C(=O)N[C@@H](CC(N)=O)C(=O)N[C@@H]([C@@H](C)O)C(=O)N[C@@H](C)C(=O)N[C@@H]([C@@H](C)O)C(=O)N1)[C@@H](C)O)C(C)C)C(=O)N[C@@H](CC(C)C)C(=O)N1CCC[C@H]1C(=O)N1CCC[C@H]1C(=O)N[C@H](C(=O)N[C@@H](CCC(=O)O)C(=O)N[C@H](C(=O)NCC(=O)N[C@@H](CO)C(=O)N[C@@H](CC(N)=O)C(=O)N[C@H](C(=O)N[C@@H](Cc1ccc(O)cc1)C(N)=O)[C@@H](C)O)C(C)C)[C@@H](C)O

- EC50 (cAMP production) [1]: 0.877 nM
- Ratio (EC50 hCTR / EC50 hAMYR3) [1]: 20
- EC50 (cAMP production) [2]: 17.7 nM
B3: Peptide 34 (SEQ ID NO: 34) (peptide)
peptide: K([γGlu-C18 diacid])KCNTATCATQRLA[Dab]FLVHSSNNFGPILPPTEVGSNTY-NH2
modifications: disulfide 3-8; N-terminus assumed
SMILES: CC[C@H](C)[C@H](NC(=O)[C@@H]1CCCN1C(=O)CNC(=O)[C@H](Cc1ccccc1)NC(=O)[C@H](CC(N)=O)NC(=O)[C@H](CC(N)=O)NC(=O)[C@H](CO)NC(=O)[C@H](CO)NC(=O)[C@H](Cc1c[nH]cn1)NC(=O)[C@@H](NC(=O)[C@H](CC(C)C)NC(=O)[C@H](Cc1ccccc1)NC(=O)[C@H](CCN)NC(=O)[C@H](C)NC(=O)[C@H](CC(C)C)NC(=O)[C@H](CCCNC(=N)N)NC(=O)[C@H](CCC(N)=O)NC(=O)[C@@H](NC(=O)[C@H](C)NC(=O)[C@@H]1CSSC[C@H](NC(=O)[C@H](CCCCN)NC(=O)[C@@H](N)CCCCNC(=O)CC[C@H](NC(=O)CCCCCCCCCCCCCCCCC(=O)O)C(=O)O)C(=O)N[C@@H](CC(N)=O)C(=O)N[C@@H]([C@@H](C)O)C(=O)N[C@@H](C)C(=O)N[C@@H]([C@@H](C)O)C(=O)N1)[C@@H](C)O)C(C)C)C(=O)N[C@@H](CC(C)C)C(=O)N1CCC[C@H]1C(=O)N1CCC[C@H]1C(=O)N[C@H](C(=O)N[C@@H](CCC(=O)O)C(=O)N[C@H](C(=O)NCC(=O)N[C@@H](CO)C(=O)N[C@@H](CC(N)=O)C(=O)N[C@H](C(=O)N[C@@H](Cc1ccc(O)cc1)C(N)=O)[C@@H](C)O)C(C)C)[C@@H](C)O

- EC50 (cAMP production) [1]: 0.598 nM
- Ratio (EC50 hCTR / EC50 hAMYR3) [1]: 26
- EC50 (cAMP production) [2]: 15.8 nM
B4: Peptide 33 (SEQ ID NO: 33) (peptide)
peptide: K([γGlu-C18 diacid])KCNTATCATQRLA[Dab]FLVHSSNNFGPILPPTNVGSNTY-NH2
modifications: disulfide 3-8; N-terminus assumed
SMILES: CC[C@H](C)[C@H](NC(=O)[C@@H]1CCCN1C(=O)CNC(=O)[C@H](Cc1ccccc1)NC(=O)[C@H](CC(N)=O)NC(=O)[C@H](CC(N)=O)NC(=O)[C@H](CO)NC(=O)[C@H](CO)NC(=O)[C@H](Cc1c[nH]cn1)NC(=O)[C@@H](NC(=O)[C@H](CC(C)C)NC(=O)[C@H](Cc1ccccc1)NC(=O)[C@H](CCN)NC(=O)[C@H](C)NC(=O)[C@H](CC(C)C)NC(=O)[C@H](CCCNC(=N)N)NC(=O)[C@H](CCC(N)=O)NC(=O)[C@@H](NC(=O)[C@H](C)NC(=O)[C@@H]1CSSC[C@H](NC(=O)[C@H](CCCCN)NC(=O)[C@@H](N)CCCCNC(=O)CC[C@H](NC(=O)CCCCCCCCCCCCCCCCC(=O)O)C(=O)O)C(=O)N[C@@H](CC(N)=O)C(=O)N[C@@H]([C@@H](C)O)C(=O)N[C@@H](C)C(=O)N[C@@H]([C@@H](C)O)C(=O)N1)[C@@H](C)O)C(C)C)C(=O)N[C@@H](CC(C)C)C(=O)N1CCC[C@H]1C(=O)N1CCC[C@H]1C(=O)N[C@H](C(=O)N[C@@H](CC(N)=O)C(=O)N[C@H](C(=O)NCC(=O)N[C@@H](CO)C(=O)N[C@@H](CC(N)=O)C(=O)N[C@H](C(=O)N[C@@H](Cc1ccc(O)cc1)C(N)=O)[C@@H](C)O)C(C)C)[C@@H](C)O
